Two molecules from publication PMC2978023 (Journal of immunology (Baltimore, Md. : 1950), 2008) can be followed below.

Ends that are not written are not given here.

Assay in all cases: ELISA
Background: In an ELISA, binding on a coated surface is turned into a signal by an enzyme label.

Assay [1] deals with recombinant purified β2 integrin subunit (UniProt P05107 23-769).
Assay [2] concerns the target recombinant purified integrin αMβ2 (UniProt P11215 17-1152; P05107 23-769).
The target of assay [3] is recombinant purified αM integrin subunit (UniProt P11215 17-1152).

One may read the Kd as the free concentration of one partner at which half of the binding sites on the other are occupied at equilibrium, for simple one-to-one binding.

Take GWTVFQKRLDGSV (also: biotin label, position not given here) [peptide P1, Fgγ(190)GWTVFQKRLDGSV(202)]: in assay [1], the Kd was over 100000 nM.
As to KIIPFNRLTIG (also: biotin label, position not given here) [peptide P2-C, Fgγ(385)KIIPFNRLTIG(395)], the Kd is 50 nM in assay [1], 12 nM in assay [2] and 100 nM in assay [3].
